Data from patent publication EP3911180B1, “PAENIBACILLUS WYNNII BETA-GALACTOSIDASE FOR THE PRODUCTION OF LACTOSE-DEPLETED AND GOS-ENRICHTED DAIRY PRODUCTS” (Universität Hohenheim, priority 2019, dated 2020).

Substrate: OC[C@H]1O[C@@H](O[C@H]2[C@H](O)[C@@H](O)C(O)O[C@@H]2CO)[C@H](O)[C@@H](O)[C@H]1O
Assay: Determination of KM with lactose as substrate
Format: biochemical, Paenibacillus wynnii
Conditions: 8 °C
Method: For the substrate solution 400 mM lactose was dissolved in Novo buffer (the composition of which is depicted in Table 4). The beta-galactosidase activity was determined in a thermo shaker in 1.5 mL reaction tubes at 8°C. The enzyme mix and the lactose solution were preincubated at 8 °C for 12 min. To start the enzymatic reaction 100 µL of the enzyme mix were added to 100 µL lactose solution. The reaction was carried out for 5 min at 8 °C. The reaction was stopped by adding 300 µL 1 M HClO4 to the enzyme-substrate-mix. The mix was kept on ice for 5 min before it was centrifuged at 13 000 rcf and 4 °C for 5 min. 160 µL of the supernatant were transferred to 75 µL 2 M KOH to neutralise the solution. The neutralisation step was checked using pH paper and the pH was adjusted if necessary. The solution was kept on ice for another 5 min before it was centrifuged at 13 000 rcf at 4 °C for 5 min. All assays were performed in triplicate. Table 4: Composition of Novo buffer
The kinetic parameters were determined using the natural substrate lactose. The reaction matrices and conditions were chosen in order to simulate conditions in milk systems. The chosen reaction matrices were Novo buffer (cf. Table 4, above) and milk diluted with Novo buffer. The reaction temperature was 8 °C and the pH value was 6.7.
For the determination of the KM values of P. wynnii beta-galactosidase lactose concentrations ranged from 0.76 mM to 97.5 mM. In order to obtain different lactose concentrations in milk, milk was diluted with Novo buffer. […] The enzyme activities were measured under initial reaction velocity conditions of the enzyme. The reaction times for the initial velocity of the enzymes were determined in previous experiments. The kinetic parameter KM was analysed using the Enzyme Kinetics Module in SigmaPlot 12.5 (Systat Software, Inc., San Jose, USA).
In the case of the studies in Novo buffer the enzyme activity decreased again with increasing lactose concentration. […] Table 6: Summary of the determined KM values using the Enzyme Kinetics Module in SigmaPlot 12.5. […]

B1: P. wynnii beta-galactosidase (SEQ ID NO: 1) (Paenibacillus wynnii) (protein)
chain: MRKKLVYSPPTNGYPEWNNNPECFQINRMDAHATWIPFNTTEDALLGDPQSSPNYLSLNGMWKFAYAETPDQRIRNFFEKNYDCSSWAELNVPSHWQMHGYDYPQYTNVRYPWSEREPELKPPFAPTQYNPVGSYVRTFSVPEDWSGKPVFISFQGVESAFYVWLNGELVGYSEDTFTPAEFDLTPYLIPGDNKLAVEVYRWCDASWLEDQDFWRLSGIFRDVYLYTTPEAHIYDFFVRTELDEQYRHAELQLDVKLMDYFERTAEAVIVHAQLYDHDQNAIFDQPLSQTVYFNSASTQTLQFSSSIIDPLKWSAEHPNLYTLVLSLHHVDGELMEAVSCRVGFRTFELKDGLMKINGKRIVFKGVNRHEFSCDTGRSIDVDDMVRDILLMKAHNINAVRTSHYPNQTIWYDLCDQYGLYVIDETNLETHGSWSYGQTDLGGNTVPGSRPEWRANVLDRCNSMLQRDKNHPSIVIWSLGNESFGGDNFVAMHDFLKKEDPSRLVHYEGLFHYRESDVASDIESTMYISPADVEQYALNDPKKPYILCEYSHAMGNSCGGLHLYWEVFEKYDILQGAFIWDWIDQAIRLKQADGSMHMAYGGDFGESPHDGNFCGNGLIFADRSVSPKLYEVKKCYQNVKFEAVDLERGIYRVTNQNLFTDLAEYALAWEVSCNGNPVLKGTVDLAVPAGESAEISVPVVDEPNLQSEGEHVLTFSLQLKKSTLWADAGHEVAWEQFLLPTPQFMAGQDQDSVLTSDRGVIVEEQAGRLTVQAADVSLQFSTSSGYLISMQNKGKELLLEPVRPNFWRAVTDNDLGNKHHERCAVWNTAGAGCTLASFESHKNVDGVTVRAKYTVPTVPISSLILEYRIQENGSIEVFEELSPGMGLPEIPEIGLMFIVEDRLDTVSWYGRGPHENYWDRKTGARLGYFSGSVQDQFVPYIRPQECGNKTDVRFASITGGINGSGFRVDGDPVLELNALPWTPAELEANDHIYKLPASNKTVVRVNYKQMGVGGDNSWGATTHPEFTLPADQTYGFRFTIRMV
- Km (other: Novo buffer, pH 6.7, A: evaluation according to Michaelis-Menten, pH 6.7): 0.34 ± 0.084 mM
- Km (other: Novo buffer, pH 6.7, B: evaluation under consideration of substrate inhibition, pH 6.7): 0.52 ± 0.089 mM
- Km (other: milk + Novo buffer): 0.63 mM
